Experimental data reported in patent US6610535B1, “Progenitor cells and methods and uses related thereto” (ES Cell International Pte Ltd., priority 2000, dated 2003).
Entries after “also recorded” stand apart in the source; their conditions may differ.

Columns and labels:
[1] = tested on: T0 duct prep; assay: PNA-FITC FACS of dispersed duct cells; format: binding, rat; settings: by FACS analysis
Experimental: PNA-FITC was diluted 1:250 in sterile wash buffer (Ca++ Mg++-free PBS containing 1% FBS). Dispersed live cells (approx. 2×10^6 cells) were spun down and resuspended in 100 μl of lectin and incubated for 30-45 min at 4° C. Cells were then washed twice with sterile wash buffer, resuspended in 2 ml of Iscoveís modified DMEM containing 5% FBS, Pen/Strep, 1 mM glutamine, and held on ice until run on the FACSVantage. Standard FACS procedures were used.

[2] = tested on: pancreatic duct epithelial cells; assay: PNA-FITC lectin histochemistry of pancreas; format: binding, rat
Experimental: Paraffin sections of adult human pancreas, adult rat pancreas, embryonic rat pancreas, or cryosections of adult mouse pancreas were used. Alternatively, Time 0 duct or cultured duct preparations from 2 week old rat pancreas were examined, with or without paraformaldehyde fixation. PNA-FITC was used usually at 1:250 dilution in PBS or DMEM/HEPES medium and incubated for 1 hr to overnight at 4° C., then washed and mounted under VectaShield mounting medium containing DAPI. Cells stained without prior fixation were post-fixed before addition of mounting medium.

B1: PNA: plant lectin that binds to galactosyl (β-1,3) N-acetyl galactosamine (protein, UniProt P02872 24-273, looked up)
Galactose-binding lectin: AETVSFNFNSFSEGNPAINFQGDVTVLSNGNIQLTNLNKVNSVGRVLYAMPVRIWSSATGNVASFLTSFSFEMKDIKDYDPADGIIFFIAPEDTQIPAGSIGGGTLGVSDTKGAGHFVGVEFDTYSNSEYNDPPTDHVGIDVNSVDSVKTVPWNSVSGAVVKVTVIYDSSTKTLSVAVTNDNGDITTIAQVVDLKAKLPERVKFGFSASGSLGGRQIHLIRSWSFTSTLITTTRRSIDNNEKKIMNMASA
PNA-positive fraction of T0 duct prep [1]: 5-15%
labelling of the major pancreatic duct (common bile duct, CBD) [2]: does not mark
labelling of blood vessels or stromal cells ([2]; by immunohistochemistry): does not mark
labelling of islet cells ([2]; rat): did NOT label; also recorded: does NOT mark
labelling of duct epithelial cells ([2]; rat pancreas): DID label; also recorded: marks the single layer of epithelial cells
